Legend:
Assay type in all cases: biochemical, Aspergillus niger
[1] = substrate: O=[N+]([O-])c1ccc(O[C@@H]2O[C@H](CO)[C@@H](O)[C@H](O)[C@H]2O)cc1; experiment: BG kinetics, pNPG hydrolysis assay with glucose as competitive inhibitor, yEdQ885-BG; conditions: other: pNPG substrate, pH 5.0, 50° C.
Description: (§1) The beta-glucosidase (BG) gene from Aspergillus niger (Accession #CAB75696.1) was integrated into the TR3 yeast background at the T4U3 genomic site.
(§2) High resolution enzyme assays and kinetic testing comparing the beta-glucosidases described herein and commercial enzyme preparations were pursued to more clearly quantify differences in mutant BG enzymes compared to the wild type BG enzyme. Based on data presented herein, BG mutant YEdQ885 was selected for further analysis and compared to the BG activity present in commercial preparations of SP188 (Novozymes) and Accellerase® BG (DuPont) as well as wild type BG.
(§3) The kinetic properties of beta glucosidase are important for cellulosic hydrolysis, since in commercial situations a wide range of substrate concentrations and different product inhibition conditions will be encountered. In this example, a Michaelis-Menten kinetics model was used to describe BG kinetics. To determine these kinetic properties, BG activity assays using standard substrates pNPG and cellobiose were employed. yEdQ745-BG (wild type) and yEdQ885-BG (improved), were compared with two commercial BGs, A-BG (Accellerase®) BG from Dupont) and S-BG (Novozymes SP188 from Sigma).
BG activity assay using pNPG is one of the two commonly used standard assays to measure BG activity, which utilizes hydrolysis of p-nitrophenyl-β-D-glucopyranoside (pNPG) by BG into a yellow colored product, p-nitrophenol (pNP), that has a strong absorbance at 405 nm. One pNPG unit is defined as the amount of enzyme that produces 1 μmol of pNP per min. Briefly, to determine BG activity, 25 μL of diluted enzyme in 200 mM sodium acetate buffer (pH 5.0) was mixed with 25 μL of the same buffer and 25 μL of RO water (or glucose solution for the kinetic study) and the mixture was preincubated at 50° C. for 5 min. The reaction was initiated by adding 25 μL of 10 mM pNPG in 200 mM sodium acetate buffer (pH 5.0) and the mixture was incubated at 50° C. for 10 min. The reaction was then terminated by adding 100 μL of 0.25 M sodium carbonate, and the amount of pNP produced was determined by measuring absorbance at 405 nm using a predetermined calibration curve. […]
To determine the kinetic properties, a competitive inhibition mechanism was hypothesized as proposed in the literature (Chauve et al, 2010; Krogh et al, 2010). […] The turnover number, Kcat, can be calculated by Equation (2), where [Et] is the total amount of enzyme.
Conventionally, linearization methods can be used to determine the kinetic parameters based on Equation (1). […] Thus, Vmax, Km and Ki can be determined simultaneously from this fitting process, and Km/Ki can then be calculated. Kcat can be obtained by Equation (2) and Kcat/Km can be calculated accordingly. […]

[2] = substrate: OC[C@H]1O[C@@H](O[C@H]2[C@H](O)[C@@H](O)C(O)O[C@@H]2CO)[C@H](O)[C@@H](O)[C@@H]1O; experiment: BG kinetics, cellobiose hydrolysis assay (HPLC) with glucose as competitive inhibitor, yEdQ885-BG; conditions: other: cellobiose substrate, pH 4.8, 50° C.
Description: as §1, §2, §3
(§4) BG activity assay using cellobiose is the other standard assay to measure BG or cellobiase activity, which utilizes hydrolysis of cellobiose by cellobiase into two molecules of glucose, the last step of enzymatic hydrolysis of cellulose. One cellobiase unit (commonly termed as CBU) is defined as the amount of enzyme that converts […] of cellobiose or produces 2 μmol of glucose per min. Briefly, to determine BG activity, 25 μL of diluted enzyme in 50 mM citrate buffer (pH 4.8) equilibrated to 50° C. was mixed with 25 μL cellobiose (or cellobiose/glucose mixture for the kinetic study) to start the reaction. The mixture was incubated at 50° C. for 10 min, and the reaction was terminated by incubating the mixture at 99° C. for 5 min. Different methods are available to measure the glucose produced in the assays. For the kinetic study, HPLC was used.
To determine kinetic properties using cellobiose substrate, duplicate assays with cellobiose concentrations ranging from 0.47 to 15 mM and glucose concentrations of 0, 0.9, 4.5, 6.75, and 8.1 (for A-BG) or 9 (for all the other three BGs) g/L were performed. As for pNPG substrate, the range of cellobiose substrate concentration was chosen to show detectable activity at the lowest substrate concentration and saturation stage at high substrate concentration. However, in contrast to the pNPG substrate, when there was still some activity left at glucose concentration up to 36 g/L, most of the BG activity was lost at an inhibitor level of 9 g/L when cellobiose substrate was used. […]

[3] = substrate: O=[N+]([O-])c1ccc(O[C@@H]2O[C@H](CO)[C@@H](O)[C@H](O)[C@H]2O)cc1; experiment: BG kinetics, pNPG hydrolysis assay with glucose as competitive inhibitor, yEdQ745-BG; conditions: other: pNPG substrate, pH 5.0, 50° C.
Description: (§5) Accordingly, in some embodiments, the unmodified form of the beta-glucosidase is a wild-type or a naturally occurring beta-glucosidase, such as, for example, a fungal beta-glucosidase. The full nucleic acid and amino acid sequence for numerous fungal beta-glucosidases are available. The amino acid sequence of A. niger beta-glucosidase is provided as SEQ ID NO:2. Thus, in some embodiments, the unmodified beta-glucosidase is from an Aspergillus species. In some embodiments, the unmodified beta-glucosidase is from a Trichoderma species.
as §1
(§6) The BG-expressing strains were subsequently used in corn mash and corn stover simultaneous saccharification and fermentation (SSF) studies using flask scale and pilot plant fermentations. A 12-gallon corn stover fermentation was performed at 40° C. in which the beta-glucosidase secreting yeast strain was co-inoculated with three other engineered yeast strains individually expressing endoglucanase II, CBH1, and CBHII. Surviving TR3 Saccharomyces cerevisiae yeast strains individually expressing BG, EGII, CBH1 or CBH2 were recovered by plating onto solid medium. A clonal population of BG-secreting yeast was isolated and the BG gene integration confirmed. This strain is referred to herein as yEdQ745 and comprises the wild-type BG gene. The BG sequence in the Tau3 integration cassette was used for subsequent mutagenesis experiments.
as §3
BG activity assay using pNPG is one of the two commonly used standard assays to measure BG activity, which utilizes hydrolysis of p-nitrophenyl-β-D-glucopyranoside (pNPG) by BG into a yellow colored product, p-nitrophenol (pNP), that has a strong absorbance at 405 nm. One pNPG unit is defined as the amount of enzyme that produces 1 μmol of pNP per min. […] The reaction was then terminated by adding 100 μL of 0.25 M sodium carbonate, and the amount of pNP produced was determined by measuring absorbance at 405 nm using a predetermined calibration curve. […]

[4] = substrate: OC[C@H]1O[C@@H](O[C@H]2[C@H](O)[C@@H](O)C(O)O[C@@H]2CO)[C@H](O)[C@@H](O)[C@@H]1O; experiment: BG kinetics, cellobiose hydrolysis assay (HPLC) with glucose as competitive inhibitor, yEdQ745-BG; conditions: other: cellobiose substrate, pH 4.8, 50° C.
Description: as §5, §1, §6, §3
as §4, with “The mixture was incubated at 50° C. for 10 min, and the reaction was terminated by incubating the mixture at 99° C. for 5 min. Different methods are available to measure the glucose produced in the assays. For the kinetic study, HPLC was used.” left out

B1: Aspergillus niger beta-glucosidase (CAB75696.1, SEQ ID NO:2) improved variant yEdQ885-BG (Aspergillus niger; Y363C/Y375F/Y610F) (protein)
chain: DELAYSPPYYPSPWANGQGDWAQAYQRAVDIVSQMTLDEKVNLTTGTGWELELCVGQTGGVPRLGVPGMCLQDSPLGVRDSDYNSAFPAGMNVAATWDKNLAYLRGKAMGQEFSDKGADIQLGPAAGPLGRSPDGGRNWEGFSPDPALSGVLFAETIKGIQDAGVVATAKHYIAYEQEHFRQAPEAQGFGFNISESGSANLDDKTMHELYLWPFADAIRAGAGAVMCSYNQINNSYGCQNSYTLNKLLKAELGFQGFVMSDWAAHHAGVSGALAGLDMSMPGDVDYDSGTSYWGTNLTISVLNGTVPQWRVDDMAVRIMAAYYKVGRDRLWTPPNFSSWTRDECGYKYYYVSEGPFEKVNQYVNVQRNHSELIRRIGADSTVLLKNDGALPLTGKERLVALIGEDAGSNPYGANGCSDRGCDNGTLAMGWGSGTANFPYLVTPEQAISNEVLKHKNGVFTATDNWAIDQIEALAKTASVSLVFVNADSGEGYINVDGNLGDRRNLTLWRNGDNVIKAAASNCNNTIVVIHSVGPVLVNEWYDNPNVTAILWGGLPGQESGNSLADVLYGRVNPGAKSPFTWGKTREAYQDFLVTEPNNGNGAPQEDFVEGVFIDYRGFDKRNETPIYEFGYGLSYTTFNYSNLEVQVLSAPAYEPASGETEAAPTFGEVGNASDYLYPSGLQRITKFIYPWLNGTDLEASSGDASYGQDSSDYLPEGATDGSAQPILPAGGGPGGNPRLYDELIRVSVTIKNTGKVAGDEVPQLYVSLGGPNEPKIVLRQFERITLQPSEETKWSTTLTRRDLANWNVEKQDWEITSYPKMVFVGSSSRKLPLRASLPTVH
notes: strain yEdQ885, BG acid/base mutant #8
Km [1]: 640 ± 30 µM | Vmax [1]: 6.33 µmol/min/mg | kcat [1]: 12.7 s⁻¹ | kcat/Km [1]: 19800 M⁻¹ s⁻¹ | Km [2]: 1450 ± 260 µM | Vmax [2]: 11.6 µmol/min/mg | kcat [2]: 23.1 s⁻¹ | kcat/Km [2]: 16000 M⁻¹ s⁻¹

B2: Aspergillus niger beta-glucosidase, wild type, yEdQ745-BG (CAB75696.1, SEQ ID NO:2) (Aspergillus niger) (protein)
chain: DELAYSPPYYPSPWANGQGDWAQAYQRAVDIVSQMTLDEKVNLTTGTGWELELCVGQTGGVPRLGVPGMCLQDSPLGVRDSDYNSAFPAGMNVAATWDKNLAYLRGKAMGQEFSDKGADIQLGPAAGPLGRSPDGGRNWEGFSPDPALSGVLFAETIKGIQDAGVVATAKHYIAYEQEHFRQAPEAQGFGFNISESGSANLDDKTMHELYLWPFADAIRAGAGAVMCSYNQINNSYGCQNSYTLNKLLKAELGFQGFVMSDWAAHHAGVSGALAGLDMSMPGDVDYDSGTSYWGTNLTISVLNGTVPQWRVDDMAVRIMAAYYKVGRDRLWTPPNFSSWTRDEYGYKYYYVSEGPYEKVNQYVNVQRNHSELIRRIGADSTVLLKNDGALPLTGKERLVALIGEDAGSNPYGANGCSDRGCDNGTLAMGWGSGTANFPYLVTPEQAISNEVLKHKNGVFTATDNWAIDQIEALAKTASVSLVFVNADSGEGYINVDGNLGDRRNLTLWRNGDNVIKAAASNCNNTIVVIHSVGPVLVNEWYDNPNVTAILWGGLPGQESGNSLADVLYGRVNPGAKSPFTWGKTREAYQDYLVTEPNNGNGAPQEDFVEGVFIDYRGFDKRNETPIYEFGYGLSYTTFNYSNLEVQVLSAPAYEPASGETEAAPTFGEVGNASDYLYPSGLQRITKFIYPWLNGTDLEASSGDASYGQDSSDYLPEGATDGSAQPILPAGGGPGGNPRLYDELIRVSVTIKNTGKVAGDEVPQLYVSLGGPNEPKIVLRQFERITLQPSEETKWSTTLTRRDLANWNVEKQDWEITSYPKMVFVGSSSRKLPLRASLPTVH
notes: strain yEdQ745
Km [3]: 640 ± 60 µM | Vmax [3]: 4.17 µmol/min/mg | kcat [3]: 8.34 s⁻¹ | kcat/Km [3]: 13000 M⁻¹ s⁻¹ | Km [4]: 1450 ± 290 µM | Vmax [4]: 4.36 µmol/min/mg | kcat [4]: 8.72 s⁻¹ | kcat/Km [4]: 6010 M⁻¹ s⁻¹

Source: patent US10077436B2, “Beta-glucosidase enzymes for increased biomass saccharification” (Edeniq, Inc., priority 2013, dated 2018)
